Legend:
[1] = tested on: consensus RXRE 5′-AGGTCAnAGGTCA-3′; assay: luciferase reporter bearing one RXRE, COS-1 cells; assay type: cell-based, African green monkey; conditions: RXRα with 10^−6 M 9-cis retinoic acid
Description: (§1) An ERE drives the expression of the firefly luciferase cDNA as the reporter enzyme from the TATA box promoter. […] The reporter vector contains no (TATA) or two ERE half sites with 0, 1, 2, 3, 4, 5, 10 or 15 non-specific central nucleotides. FIGS. 4C and 4D show COS-1 cells were transfected with expression vectors bearing none (V), RXRα (Panel C) PR (Panel D), ERα, (VP16)2-CDC-(p65)2 or (p65)2-CDC-(VP16)2 cDNA. Cells were treated with 10^−6 M 9-cis-retinoic acid for RXRα, 10^−8 M Progesterone for PR or 10^−9 M E2 for ERα for 24 h. The TATA box reporter vector bears one consensus RXRE 5′-AGGTCAnAGGTCA-′3 (Panel C) or PRE 5′-AGAACAnnnTGTTCT-3′ (panel D) that drives the expression of the reporter firefly luciferase cDNA. Normalized luciferase values represented as fold change are the mean±SEM of three independent experiments performed in duplicate.
(§2) Culturing and transfection of the mammalian COS-1 and […] MDA-MB-231 cells were described previously (Muyan, M. et al. (2001) Mol Cell Endocrinol 182,249-263; Yi, P. et al. (2002) Mol Endocrinol 16, 1810-1827), with the exceptions that 48 well cell culture plates were used and Trans-IT LTI transfection reagent (Mirus Corp., Madison, Wis.). Luciferase assays were performed with a Dual Luciferase Assay kit (Promega) according to the manufacture's recornmendations. […]

[2] = tested on: PRE 5′-AGAACAnnnTGTTCT-3′; assay: luciferase reporter bearing a single PRE, COS-1 cells; assay type: cell-based, African green monkey; conditions: PR with 10^−8 M Progesterone
Description: as §1, §2

B1: Retinoic X Receptor α (protein, UniProt P19793 1-462, looked up)
Retinoic acid receptor …: MDTKHFLPLDFSTQVNSSLTSPTGRGSMAAPSLHPSLGPGIGSPGQLHSPISTLSSPINGMGPPFSVISSPMGPHSMSVPTTPTLGFSTGSPQLSSPMNPVSSSEDIKPPLGLNGVLKVPAHPSGNMASFTKHICAICGDRSSGKHYGVYSCEGCKGFFKRTVRKDLTYTCRDNKDCLIDKRQRNRCQYCRYQKCLAMGMKREAVQEERQRGKDRNENEVESTSSANEDMPVERILEAELAVEPKTETYVEANMGLNPSSPNDPVTNICQAADKQLFTLVEWAKRIPHFSELPLDDQVILLRAGWNELLIASFSHRSIAVKDGILLATGLHVHRNSAHSAGVGAIFDRVLTELVSKMRDMQMDKTELGCLRAIVLFNPDSKGLSNPAEVEALREKVYASLEAYCKHKYPEQPGRFAKLLLRLPALRSIGLKCLEHLFFFKLIGDTPIDTFLMEMLEAPHQMT
modifications: treated with 9-cis retinoic acid
notes: expressed from vector, treated with 9-cis retinoic acid
luciferase activity from a reporter plasmid bearing one RXRE [1]: augmented the enzyme activity

B2: Progesterone Receptor (protein, UniProt P06401 1-933, looked up)
Progesterone receptor: MTELKAKGPRAPHVAGGPPSPEVGSPLLCRPAAGPFPGSQTSDTLPEVSAIPISLDGLLFPRPCQGQDPSDEKTQDQQSLSDVEGAYSRAEATRGAGGSSSSPPEKDSGLLDSVLDTLLAPSGPGQSQPSPPACEVTSSWCLFGPELPEDPPAAPATQRVLSPLMSRSGCKVGDSSGTAAAHKVLPRGLSPARQLLLPASESPHWSGAPVKPSPQAAAVEVEEEDGSESEESAGPLLKGKPRALGGAAAGGGAAAVPPGAAAGGVALVPKEDSRFSAPRVALVEQDAPMAPGRSPLATTVMDFIHVPILPLNHALLAARTRQLLEDESYDGGAGAASAFAPPRSSPCASSTPVAVGDFPDCAYPPDAEPKDDAYPLYSDFQPPALKIKEEEEGAEASARSPRSYLVAGANPAAFPDFPLGPPPPLPPRATPSRPGEAAVTAAPASASVSSASSSGSTLECILYKAEGAPPQQGPFAPPPCKAPGASGCLLPRDGLPSTSASAAAAGAAPALYPALGLNGLPQLGYQAAVLKEGLPQVYPPYLNYLRPDSEASQSPQYSFESLPQKICLICGDEASGCHYGVLTCGSCKVFFKRAMEGQHNYLCAGRNDCIVDKIRRKNCPACRLRKCCQAGMVLGGRKFKKFNKVRVVRALDAVALPQPVGVPNESQALSQRFTFSPGQDIQLIPPLINLLMSIEPDVIYAGHDNTKPDTSSSLLTSLNQLGERQLLSVVKWSKSLPGFRNLHIDDQITLIQYSWMSLMVFGLGWRSYKHVSGQMLYFAPDLILNEQRMKESSFYSLCLTMWQIPQEFVKLQVSQEEFLCMKVLLLLNTIPLEGLRSQTQFEEMRSSYIRELIKAIGLRQKGVVSSSQRFYQLTKLLDNLHDLVKQLHLYCLNTFIQSRALSVEFPEMMSEVIAAQLPKILAGMVKPLLFHKK
notes: expressed from vector, treated with Progesterone
reporter enzyme activity from a single PRE [2]: enhanced the reporter enzyme activity
